T1: LIN7A, O14910
T1 sequence (O14910 103-200, limits assumed, looked up): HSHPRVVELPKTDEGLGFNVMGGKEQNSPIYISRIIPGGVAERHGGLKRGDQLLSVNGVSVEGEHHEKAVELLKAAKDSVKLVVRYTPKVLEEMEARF


Biological target: T1, LIN7A, O14910
Assay: holdup assay
Set-up: key: below the threshold = too weak to quantify, mostly under pKd 3.1 to 4
[1] = plain residues with an end cap or a label only (N-terminal biotin on a linker: ado-ado)
[2] = plain residues with an end cap or a label only (N-terminal biotin on a linker: ahx)
[3] = plain residues with an end cap or a label only (N-terminal biotin on a linker: ttds)

| Binder | pKd [2] | pKd [3] | other results |
| --- | --- | --- | --- |
| SQDPKKPSRV [CBY2, Q8NA61] |  |  | pKd [1]: below the threshold |
| FVETQHQTQV [FAT3, Q8TDW7] |  | below the threshold |  |
| PDSYHRRDFW [U2AF2, P26368] |  |  | pKd [1]: below the threshold |
| KQVVPFSSSV [GDA, Q9Y2T3] |  | below the threshold |  |
| VNENQKEYFF [CNTNAP4, Q9C0A0] | below the threshold |  |  |
| NPDALPETLV [ARHGAP6, O43182] |  | 3.61 |  |
| AKPQPVDSWV [ARVCF, O00192] | below the threshold |  |  |
| EKPIDSETKM [SLC1A3, P43003] |  |  | pKd [1]: below the threshold |
| SNAKAVETDV [KCNA4, P22459] |  |  | pKd (plain residues with an end cap or a label only (N-terminal biotin on a linker: ado-ado, ttds)): below the threshold |
| KDECVIATEV [DLL1, O00548] | below the threshold |  |  |
| DAAHHDESNC [FMNL3, Q8IVF7] |  |  | pKd [1]: below the threshold |
| GRLLGLETNV [ARHGEF26, Q96DR7] |  | below the threshold |  |
| PFRSRSPSEV [GPR6, P46095] |  | below the threshold |  |
| IGHEDLETAV [DGKI, O75912] |  |  | pKd [1]: 4.07 |
| ELKAEDEVQI [DCHS2, Q6V1P9] |  |  | pKd [1]: below the threshold |

Continued, in another order:

| pKd [2] | pKd [3] | Binder | other results |
| --- | --- | --- | --- |
| below the threshold |  | SAPATLSSRA [PDLIM2, Q96JY6] |  |
|  | below the threshold | QRPYRRESEI [KCNJ12, Q14500] |  |
| below the threshold |  | PKMKLNETSF [SHKBP1, Q8TBC3] |  |
| below the threshold |  | YNSFLSVTTV [PDZRN3, Q9UPQ7] |  |
| below the threshold |  | ADENEQVSAV [RAPGEF6, Q8TEU7] |  |
| below the threshold |  | SKKNELFSNL [NHERF1, O14745] |  |
| below the threshold |  | HSATSVHTSV [MTMR1, Q13613] |  |
|  | below the threshold | GARVSKETPL [MAPK12, P53778] |  |
| below the threshold |  | KEYDDELTFF [USH1C, Q9Y6N9] |  |
|  | below the threshold | DLDEEEDTHL [PODXL, O00592] |  |
